The record followed here is patent publication US20110118447A1.

Numbering of substitutions follows the chain as printed. Names may count otherwise.

The labels stand for the following.
B1: C5A (XPA23) VH I51F (antibody, V domains shown)
VH: EVQLLESGGGLVQPGGSLRLSCAASGFTFSKYFMFWVRQAPGKGLEWVSVFSPSGGMTRYADSVKGRFTISRDNSKNTLYLQMNSLRAEDTAVYYCARVGYGGNSDYWGQGTLVTVSS
VL: DIQMTQSPSSVSASVGDRLTIICRASQDINRWLAWYQQTPGNAPKLLIHSATSLQSGVPSRFSGSGSGTDFTLTINSLQPEDFATYYCQQADSFPLTFGGGTKVEIK
B2: C5A (XPA23) VH I51A (antibody, V domains shown)
VH: B1 VH with F51A
VL: B1 VL
B3: C5A (XPA23) VH F35L (antibody, V domains shown)
VH: B1 VH with F35L, F51I
VL: B1 VL
B4: C5A (XPA23) VH I51G (antibody, V domains shown)
VH: B1 VH with F51G
VL: B1 VL
B5: C5A (XPA23) VH I51V (antibody, V domains shown)
VH: B1 VH with F51V
VL: B1 VL
B6: C5A (XPA23) VH V50A (antibody, V domains shown)
VH: B1 VH with V50A, F51I
VL: B1 VL
B7: C5A (XPA23) VH F35A (antibody, V domains shown)
VH: B1 VH with F35A, F51I
VL: B1 VL
B8: C5A (XPA23) VH V50L (antibody, V domains shown)
VH: B1 VH with V50L, F51I
VL: B1 VL
B9: C5A (XPA23) VH F35I (antibody, V domains shown)
VH: B1 VH with F35I, F51I
VL: B1 VL
B10: C5A (XPA23) VH F35V (antibody, V domains shown)
VH: B1 VH with F35V, F51I
VL: B1 VL
B11: C5A (XPA23) VH F35G (antibody, V domains shown)
VH: B1 VH with F35G, F51I
VL: B1 VL
B12: C5A (XPA23) VH V50I (antibody, V domains shown)
VH: B1 VH with V50I, F51I
VL: B1 VL
B13: C5A (XPA23) VH S52G (antibody, V domains shown)
VH: B1 VH with F51I, S52G
VL: B1 VL
B14: C5A (XPA23) VH I51L (antibody, V domains shown)
VH: B1 VH with F51L
VL: B1 VL
B15: C5A (XPA23) VH S52A (antibody, V domains shown)
VH: B1 VH with F51I, S52A
VL: B1 VL
B16: C5A (XPA23) VH V50G (antibody, V domains shown)
VH: B1 VH with V50G, F51I
VL: B1 VL
B17: C5A (XPA23) VH F35P (antibody, V domains shown)
VH: B1 VH with F35P, F51I
VL: B1 VL
B18: C5A (XPA23) VH S105H (antibody, V domains shown)
VH: B1 VH with F51I, S105H
VL: B1 VL
B19: C5A (XPA23) VH D106H (antibody, V domains shown)
VH: B1 VH with F51I, D106H
VL: B1 VL
B20: C5A (XPA23) VH D106R (antibody, V domains shown)
VH: B1 VH with F51I, D106R
VL: B1 VL
B21: C5A (XPA23) VH Y107S (antibody, V domains shown)
VH: B1 VH with F51I, Y107S
VL: B1 VL
B22: C5A (XPA23) VH D106N (antibody, V domains shown)
VH: B1 VH with F51I, D106N
VL: B1 VL
B23: C5A (XPA23) VH Y107D (antibody, V domains shown)
VH: B1 VH with F51I, Y107D
VL: B1 VL
B24: C5A (XPA23) VH D106S (antibody, V domains shown)
VH: B1 VH with F51I, D106S
VL: B1 VL
B25: C5A (XPA23) VH Y107E (antibody, V domains shown)
VH: B1 VH with F51I, Y107E
VL: B1 VL
B26: C5A (XPA23) VH Y107R (antibody, V domains shown)
VH: B1 VH with F51I, Y107R
VL: B1 VL
B27: C5A (XPA23) VH D106K (antibody, V domains shown)
VH: B1 VH with F51I, D106K
VL: B1 VL
B28: C5A (XPA23) VH S105Q (antibody, V domains shown)
VH: B1 VH with F51I, S105Q
VL: B1 VL
B29: C5A (XPA23) VH Y107T (antibody, V domains shown)
VH: B1 VH with F51I, Y107T
VL: B1 VL
B30: C5A (XPA23) VH D106E (antibody, V domains shown)
VH: B1 VH with F51I, D106E
VL: B1 VL
B31: C5A (XPA23) VH Y107K (antibody, V domains shown)
VH: B1 VH with F51I, Y107K
VL: B1 VL
B32: C5A (XPA23) VH S105T (antibody, V domains shown)
VH: B1 VH with F51I, S105T
VL: B1 VL
B33: C5A (XPA23) VH S105N (antibody, V domains shown)
VH: B1 VH with F51I, S105N
VL: B1 VL
B34: C5A (XPA23) VH Y107Q (antibody, V domains shown)
VH: B1 VH with F51I, Y107Q
VL: B1 VL
B35: C5A (XPA23) VH D106Q (antibody, V domains shown)
VH: B1 VH with F51I, D106Q
VL: B1 VL

One test deals with binding partner (antigen) of C5A (XPA23). Briefly: Biacore, K-off, fold vs original. For orientation: In SPR one partner is held on a chip, and binding of the other changes the refractive index at the surface.
As to B1, the fold difference in affinity vs original came to 0.9 fold.
On the same count and under the same terms, the value for B2 was 1.04 fold; that for B3 was 0.78 fold; that for B4 was 0.94 fold.
The same measure, in the same setting: to B5 belongs 0.99 fold.
Regarding B6, the fold difference in affinity vs original is 0.09 fold.
On the same count and under the same terms, the value for B7 was 0.07 fold; that for B8 was 0.09 fold; that for B9 was 0.85 fold.
For the molecule B10, the fold difference in affinity vs original came to 0.89 fold.
In the case of B11, the fold difference in affinity vs original amounted to 0.04 fold.
Same read-out and setting: to B12 belongs 0.1 fold; to B13, 0.03 fold.
Same read-out and setting: to B14 belongs 0.79 fold; to B15, 0.05 fold.
Same read-out and setting: the value for B16 was 0.03 fold; that for B17 was 0.06 fold.

The target in a further test is binding partner of C5A (XPA23). Briefly: Biacore.
As for B18, the fold affinity vs original amounted to 0.05 fold.
On the same count and under the same terms, to B19 belongs 0.02 fold.
Still for that read-out and setting: the value for B20 was 0.06 fold.
Still for that read-out and setting: the value for B21 was 0.89 fold; that for B22 was 0.07 fold.
Take B23: the fold affinity vs original was 0.85 fold.
Still for that read-out and setting: to B24 belongs 0.03 fold.
Same read-out and setting: to B1 belongs 0.9 fold; to B25, 0.9 fold.
Still for that read-out and setting: the value for B26 was 0.85 fold.
In the case of B2, the fold difference in affinity vs original was 1.04 fold.
The same measure, in the same setting: to B3 belongs 0.78 fold.
On to B4, for which the fold difference in affinity vs original was determined as 0.94 fold.
The same measure, in the same setting: the value for B5 was 0.99 fold.
On the same count and under the same terms, the value for B6 was 0.09 fold.
Consider B27, for which the fold affinity vs original was 0.04 fold.
For B28, the fold affinity vs original was 0.98 fold.
Take B7: the fold difference in affinity vs original turned out to be 0.07 fold.
For B29, the fold difference in affinity vs original was found to be 0.83 fold.
The same measure, in the same setting: the value for B8 was 0.09 fold.
B9: the fold difference in affinity vs original is 0.85 fold.
Consider B30, for which the fold affinity vs original was found to be 0.04 fold.
Turning to B10, the fold difference in affinity vs original came to 0.89 fold.
On the same count and under the same terms, the value for B11 was 0.04 fold.
With B31, the fold affinity vs original was found to be 0.82 fold.
Turning to B32, the fold difference in affinity vs original was 0.11 fold.
For the molecule B33, the fold affinity vs original stood at 0.85 fold.
As to B12, the fold difference in affinity vs original turned out to be 0.1 fold.
As to B34, the fold affinity vs original was found to be 0.87 fold.
B13: the fold difference in affinity vs original is 0.03 fold.
On to B14, for which the fold difference in affinity vs original was 0.79 fold.
Turning to B15, the fold difference in affinity vs original came to 0.05 fold.
Regarding B35, the fold affinity vs original came to 0.02 fold.
With B16, the fold difference in affinity vs original came to 0.03 fold.
Same read-out and setting: the value for B17 was 0.06 fold.

The target in a further test is binding partner of C5A (XPA23). The test is described as follows: Biacore, K-off.
For the molecule B18, the fold difference in affinity vs original came to 0.05 fold.
Consider B19, for which the fold difference in affinity vs original stood at 0.02 fold.
On the same count and under the same terms, to B20 belongs 0.06 fold; to B21, 0.89 fold.
Same read-out and setting: the value for B22 was 0.07 fold.
On the same count and under the same terms, the value for B23 was 0.85 fold; that for B24 was 0.03 fold; that for B25 was 0.9 fold.
B26: the fold difference in affinity vs original came to 0.85 fold.
In the case of B27, the fold difference in affinity vs original was 0.04 fold.
Regarding B28, the fold difference in affinity vs original was 0.98 fold.
Same read-out and setting: to B29 belongs 0.83 fold.
With B30, the fold difference in affinity vs original was 0.04 fold.
Still for that read-out and setting: to B31 belongs 0.82 fold; to B32, 0.11 fold.
Same read-out and setting: to B33 belongs 0.85 fold; to B34, 0.87 fold; to B35, 0.02 fold.
